The test system of this test is simian rotavirus SA11 strain. Description: Plaque assay: antiviral action against simian rotavirus in MA104 cells (infection-suppressing ratio). As to conditions: LF alone, n=3. The test is classed as cell-based. How it is done:
The simian rotavirus SA11 strain (Nihon Bioresearch Inc.) was inoculated to the MA104 cells (Sigma-Aldrich) of African green monkey kidney maintained in a minimum essential medium (Sigma-Aldrich, henceforth referred to simply as “medium”). The simian rotavirus SA11 strain, for example, can be obtained from American Type Culture Collection (ATCC) as ATCC VR-1565. To the medium, lactoferrin (LF) and/or the human milk oligosaccharide(s) shown below were added beforehand alone or in combination at the following concentrations, respectively (n=3).
LF (produced by Morinaga Milk Industry Co., Ltd.): 0, 0.1 or 1.0 mg/mL
2′-Fucosyllactose (2′-FL, Funakoshi Co., Ltd.): 0, 0.1, 0.5, or 2.5 mg/mL
3-Fucosyllactose (3-FL, Funakoshi Co., Ltd.): 0, 0.1, or 0.5 mg/mL
3′-Sialyllactose (3′-SL, Funakoshi Co., Ltd.): 0, 0.1, or 0.5 mg/mL
6′-Sialyllactose (6′-SL, Funakoshi Co., Ltd.): 0, 0.1, or 0.5 mg/mL […]
Degree of infection was evaluated based on the number of “plaques” formed when the cells were infected with the virus. Specifically, the antiviral effects of lactoferrin and human milk oligosaccharides were evaluated based on “plaque-suppressing ratio (%)”, i.e., the ratio of “plaque counts observed with lactoferrin and/or human milk oligosaccharide(s) supplementation” to “plaque counts observed without these supplementation”. […]

B1: lactoferrin (protein, UniProt P24627 20-708, looked up)
Lactotransferrin: APRKNVRWCTISQPEWFKCRRWQWRMKKLGAPSITCVRRAFALECIRAIAEKKADAVTLDGGMVFEAGRDPYKLRPVAAEIYGTKESPQTHYYAVAVVKKGSNFQLDQLQGRKSCHTGLGRSAGWIIPMGILRPYLSWTESLEPLQGAVAKFFSASCVPCIDRQAYPNLCQLCKGEGENQCACSSREPYFGYSGAFKCLQDGAGDVAFVKETTVFENLPEKADRDQYELLCLNNSRAPVDAFKECHLAQVPSHAVVARSVDGKEDLIWKLLSKAQEKFGKNKSRSFQLFGSPPGQRDLLFKDSALGFLRIPSKVDSALYLGSRYLTTLKNLRETAEEVKARYTRVVWCAVGPEEQKKCQQWSQQSGQNVTCATASTTDDCIVLVLKGEADALNLDGGYIYTAGKCGLVPVLAENRKSSKHSSLDCVLRPTEGYLAVAVVKKANEGLTWNSLKDKKSCHTAVDRTAGWNIPMGLIVNQTGSCAFDEFFSQSCAPGADPKSRLCALCAGDDQGLDKCVPNSKEKYYGYTGAFRCLAEDVGDVAFVKNDTVWENTNGESTADWAKNLNREDFRLLCLDGTRKPVTEAQSCHLAVAPNHAVVSRSDRAAHVKQVLLHQQALFGKNGKNCPDKFCLFKSETKNLLFNDNTECLAKLGGRPTYEEYLGTEYVTAIANLKKCSTSPLLEACAFLTR
notes: produced by Morinaga Milk Industry Co., Ltd
Regarding B1, the infection-suppressing ratio is given as 8.7% (0.1 mg/mL) and 39% (1.0 mg/mL).

The record behind these values is patent publication US20220226382A1, “Nutritional Composition” (MORINAGA MILK INDUSTRY CO., LTD., priority 2019, published 2022).
